Source: patent US20160207974A1 (published 2016)
Blank lines part the entries; values can stand above or below the binder they belong to.

Biological target: T1, monkey serum albumin (monkey)
T1 construct: also called Monkey SA
Assay: SPR (BioRad ProteOn XPR36), albumin amine-coupled to GLC chip, analyte from 5 nM in 3-fold dilutions, 25 C
Procedure: All studies were conducted on a BioRad ProteOn XPR36 system using a GLC sensor chip at 25 degrees C. For amine coupling the GLC chip was activated for 5 minutes using a 1:1 mixture of sulfo-NHS/EDC diluted 30-fold from the initial stock in water as shown below. Each albumin sample was diluted to 25 ug/ml in 10 mM Na Acetate pH 5.0 and injected for 5 minutes over separate sensor surfaces. Each surface was then blocked with 1 M ethanolamine pH 8.5. Each albumin was coupled at a density of 2000-5000 in resonance units.
The binding of an engineered polypeptide was tested using 5 nM as the highest concentration in a three-fold dilution series. The running buffer contained 10 mM HEPES pH 7.4, 150 mM NaCl, 3 mM EDTA and 0.005% tween-20. All samples were tested using a 3-fold dilution series. Each concentration series was tested in duplicate. The dissociation phase for the highest concentration […] was monitored for 3 hours.

T1 sequence (Q28522 17-600): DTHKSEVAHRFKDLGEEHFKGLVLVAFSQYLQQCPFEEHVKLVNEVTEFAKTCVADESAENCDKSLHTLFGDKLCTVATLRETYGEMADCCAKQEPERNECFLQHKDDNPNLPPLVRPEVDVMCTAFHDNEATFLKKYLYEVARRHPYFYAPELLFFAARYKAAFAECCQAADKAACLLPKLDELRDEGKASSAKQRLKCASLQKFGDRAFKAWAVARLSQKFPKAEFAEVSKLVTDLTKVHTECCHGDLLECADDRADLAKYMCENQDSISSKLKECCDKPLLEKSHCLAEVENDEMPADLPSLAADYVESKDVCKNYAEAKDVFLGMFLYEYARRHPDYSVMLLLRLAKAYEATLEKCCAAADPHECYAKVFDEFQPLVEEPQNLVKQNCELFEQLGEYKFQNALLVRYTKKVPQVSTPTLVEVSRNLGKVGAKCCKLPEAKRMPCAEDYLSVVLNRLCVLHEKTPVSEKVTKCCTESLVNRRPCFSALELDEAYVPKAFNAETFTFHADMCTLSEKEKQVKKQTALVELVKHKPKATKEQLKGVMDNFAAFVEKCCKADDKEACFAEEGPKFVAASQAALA

- Kd: 0.405 nM
B1: PEP07986-neutral linker-A500 (Compound 2) (other)
chain: MGSLAEAKEAANAELDSYGVSDFYKRLIDKAKTVEGVEALKDAILAALPTGGGGSGGGSGGGSGGGSASVPIQKVQDDTKTLIKTIVTRINDISHTQSVSSKQKVTGLEFIPGLHPILTLSKMDQTLAVYQQILTSMPSRNVIQISNDLENLRDLLHVLAFSKSCHLPQASGLETLESLGGVLEASGYSTEVVALSRLQGSLQDMLQQLDLSPGC
notes: also called Cmpd 2; PEP07986-Neutral-A500

- Kd: 0.4 nM
B2: PEP07986-negative linker-A500 (Compound 12) (other)
chain: MGSLAEAKEAANAELDSYGVSDFYKRLIDKAKTVEGVEALKDAILAALPTGGEGGEGGEGGEGGEGGEASVPIQKVQDDTKTLIKTIVTRINDISHTQSVSSKQKVTGLEFIPGLHPILTLSKMDQTLAVYQQILTSMPSRNVIQISNDLENLRDLLHVLAFSKSCHLPQASGLETLESLGGVLEASGYSTEVVALSRLQGSLQDMLQQLDLSPGC
notes: also called Cmpd 12; PEP07986-Negative-A500
